The chains are these.
T1: TNFR1 (Homo sapiens, UniProt P19438)
T1 chain: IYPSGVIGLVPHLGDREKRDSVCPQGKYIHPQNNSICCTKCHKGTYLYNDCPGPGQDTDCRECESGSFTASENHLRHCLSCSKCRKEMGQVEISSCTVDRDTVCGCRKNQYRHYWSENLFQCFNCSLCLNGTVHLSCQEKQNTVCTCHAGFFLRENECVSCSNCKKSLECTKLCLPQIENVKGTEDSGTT

B1: L40Y (designed binder)
chain: SMEEEVEKAAKEYEKKKKEAIEKHLEKLKAKDKEAAERFYKELEEAAKEYAKDEAKTMSEEEAKRRAKKYKEKVLLSELSEEEQKEIKEAEEKLVRTILKYVEEAAK
B2: E22H (designed binder)
chain: B1 chain with E22H, Y40L
B3: E83C (designed binder)
chain: B1 chain with Y40L, E83C
B4: A90L (designed binder)
chain: B1 chain with Y40L, A90L
B5: I21F (designed binder)
chain: B1 chain with I21F, Y40L
B6: S59A (designed binder)
chain: B1 chain with Y40L, S59A
B7: K33I (designed binder)
chain: B1 chain with K33I, Y40L
B8: K17P (designed binder)
chain: B1 chain with K17P, Y40L
B9: E5T (designed binder)
chain: B1 chain with E5T, Y40L
B10: T97E (designed binder)
chain: B1 chain with Y40L, T97E
B11: E44D (designed binder)
chain: B1 chain with Y40L, E44D
B12: L25G (designed binder)
chain: B1 chain with L25G, Y40L
B13: K41S (designed binder)
chain: B1 chain with Y40L, K41S
B14: K85R (designed binder)
chain: B1 chain with Y40L, K85R
B15: E3T (designed binder)
chain: B1 chain with E3T, Y40L
B16: I87N (designed binder)
chain: B1 chain with Y40L, I87N
B17: E7Q (designed binder)
chain: B1 chain with E7Q, Y40L
B18: E91F (designed binder)
chain: B1 chain with Y40L, E91F
B19: K48C (designed binder)
chain: B1 chain with Y40L, K48C
B20: E7I (designed binder)
chain: B1 chain with E7I, Y40L
B21: E72Q (designed binder)
chain: B1 chain with Y40L, E72Q
B22: A20V (designed binder)
chain: B1 chain with A20V, Y40L
B23: K31F (designed binder)
chain: B1 chain with K31F, Y40L
B24: E45Q (designed binder)
chain: B1 chain with Y40L, E45Q
B25: E83P (designed binder)
chain: B1 chain with Y40L, E83P
B26: S59Q (designed binder)
chain: B1 chain with Y40L, S59Q
B27: L28T (designed binder)
chain: B1 chain with L28T, Y40L
B28: K85T (designed binder)
chain: B1 chain with Y40L, K85T
B29: E12K (designed binder)
chain: B1 chain with E12K, Y40L
B30: A20I (designed binder)
chain: B1 chain with A20I, Y40L
B31: E89D (designed binder)
chain: B1 chain with Y40L, E89D
B32: K11T (designed binder)
chain: B1 chain with K11T, Y40L
B33: E26H (designed binder)
chain: B1 chain with E26H, Y40L
B34: E45W (designed binder)
chain: B1 chain with Y40L, E45W
B35: E44V (designed binder)
chain: B1 chain with Y40L, E44V
B36: E103N (designed binder)
chain: B1 chain with Y40L, E103N
B37: K23A (designed binder)
chain: B1 chain with K23A, Y40L
B38: K93H (designed binder)
chain: B1 chain with Y40L, K93H
B39: R38L (designed binder)
chain: B1 chain with R38L, Y40L
B40: K29R (designed binder)
chain: B1 chain with K29R, Y40L

Data on 40 molecules can be found in publication PMC12416549 (2024).

Substitutions are numbered along the chain they refer to. Names may count otherwise.

This assay addresses T1, TNFR1. Description: yeast display SC50.
Take B1: the “apparent Kd (screen)” value was found to be 0.869 nM.

On to B2, for which the “apparent Kd (screen)” value came to 0.539 nM.

Consider B3, for which the “apparent Kd (screen)” value is 0.446 nM.

B4: the “apparent Kd (screen)” value was found to be 0.446 nM.

For B5, the “apparent Kd (screen)” value was found to be 0.49 nM.

Regarding B6, the “apparent Kd (screen)” value was determined as 0.593 nM.

As for B7, the “apparent Kd (screen)” value was determined as 0.79 nM.

As to B8, the “apparent Kd (screen)” value is 22.2 nM.

Regarding B9, the “apparent Kd (screen)” value is 0.446 nM.

B10: the “apparent Kd (screen)” value was 1.69 nM.

Take B11: the “apparent Kd (screen)” value was 0.869 nM.

Regarding B12, the “apparent Kd (screen)” value was 1.05 nM.

With B13, the “apparent Kd (screen)” value turned out to be 0.869 nM.

Turning to B14, the “apparent Kd (screen)” value is 0.593 nM.

B15: the “apparent Kd (screen)” value was found to be 1.4 nM.

Take B16: the “apparent Kd (screen)” value was 12.5 nM.

As to B17, the “apparent Kd (screen)” value stood at 4.39 nM.

Turning to B18, the “apparent Kd (screen)” value came to 12.5 nM.

B19: the “apparent Kd (screen)” value was 0.49 nM.

On to B20, for which the “apparent Kd (screen)” value turned out to be 26.9 nM.

For B21, the “apparent Kd (screen)” value was determined as 2.05 nM.

Regarding B22, the “apparent Kd (screen)” value came to 2.73 nM.

On to B23, for which the “apparent Kd (screen)” value was determined as 0.446 nM.

As for B24, the “apparent Kd (screen)” value turned out to be 1.05 nM.

For the molecule B25, the “apparent Kd (screen)” value was 3.3 nM.

As to B26, the “apparent Kd (screen)” value was 1.16 nM.

With B27, the “apparent Kd (screen)” value turned out to be 0.79 nM.

For the molecule B28, the “apparent Kd (screen)” value was found to be 0.49 nM.

On to B29, for which the “apparent Kd (screen)” value was 0.446 nM.

With B30, the “apparent Kd (screen)” value is 0.539 nM.

Consider B31, for which the “apparent Kd (screen)” value amounted to 0.653 nM.

Consider B32, for which the “apparent Kd (screen)” value was 0.446 nM.

For B33, the “apparent Kd (screen)” value was found to be 0.539 nM.

As to B34, the “apparent Kd (screen)” value worked out at 1.27 nM.

For B35, the “apparent Kd (screen)” value came out at 0.446 nM.

Turning to B36, the “apparent Kd (screen)” value was 0.49 nM.

In the case of B37, the “apparent Kd (screen)” value worked out at 0.446 nM.

B38: the “apparent Kd (screen)” value came to 0.869 nM.

With B39, the “apparent Kd (screen)” value turned out to be 1.16 nM.

Regarding B40, the “apparent Kd (screen)” value stood at 0.539 nM.
